Reference: patent US20230272055A1 (Incyte, published 2023)

T1: human mutCALR on BaF3 cells stably expressing human MPL and human mutCALR (MPL-mutCALR cells) (human)
T1 construct: also called mutant calreticulin
T1 chain: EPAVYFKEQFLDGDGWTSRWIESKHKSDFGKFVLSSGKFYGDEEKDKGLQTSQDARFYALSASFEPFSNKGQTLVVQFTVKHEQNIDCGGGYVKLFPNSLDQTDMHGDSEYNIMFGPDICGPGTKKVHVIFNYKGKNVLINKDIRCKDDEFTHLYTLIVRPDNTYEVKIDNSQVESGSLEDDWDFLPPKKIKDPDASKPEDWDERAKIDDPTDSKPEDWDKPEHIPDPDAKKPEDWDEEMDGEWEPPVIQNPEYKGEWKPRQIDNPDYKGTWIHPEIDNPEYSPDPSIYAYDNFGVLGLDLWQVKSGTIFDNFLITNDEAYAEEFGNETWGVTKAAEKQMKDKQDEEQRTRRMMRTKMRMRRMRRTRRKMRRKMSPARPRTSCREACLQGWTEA

T2: human Type 1 mutCALR on Ba/F3 cells expressing MPL and Type 1 mutCALR (human)
T2 chain: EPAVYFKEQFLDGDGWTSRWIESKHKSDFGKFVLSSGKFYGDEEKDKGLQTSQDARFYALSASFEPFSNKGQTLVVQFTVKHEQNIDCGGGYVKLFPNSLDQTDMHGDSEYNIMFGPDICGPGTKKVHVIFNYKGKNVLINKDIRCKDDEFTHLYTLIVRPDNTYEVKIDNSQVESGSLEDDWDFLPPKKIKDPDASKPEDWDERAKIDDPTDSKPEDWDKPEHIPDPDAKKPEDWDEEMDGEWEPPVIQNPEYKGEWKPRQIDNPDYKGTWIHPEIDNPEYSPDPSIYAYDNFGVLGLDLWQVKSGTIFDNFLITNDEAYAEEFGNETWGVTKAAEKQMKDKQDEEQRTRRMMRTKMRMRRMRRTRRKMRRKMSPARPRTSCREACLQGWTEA


Key:
MBP protein = MBP protein (UniProt P0AEX9 27-392 = MBP); experiment: SPR (Biacore 8K), antibody captured on anti-human IgG (Fc), MBP injected
Method: Experiment 1: Recombinant MBP-mutCALR Type 1 fusion protein was custom made at Cepter (cepterbiopartners.com). Data for the interaction of antibodies with recombinant MBP-mutCALR Type 1 fusion protein were collected at 25° C. on a Biacore 8K instrument (Cytiva, Marlborough, Mass.), and all reagents were obtained from Cytiva unless otherwise specified. The experiments were conducted using Tris-buffered saline (pH 7.2), 0.005% Surfactant P20, 1 mM CaCl₂) as running buffer. To prepare the capture surfaces, anti-human IgG (Fc) antibodies (Product #29234600) was amine-coupled onto a CM4 chip (Product #BR100534) under standard conditions using an Amine Coupling Kit (Product #BR100050). […] The kinetics parameters were obtained by applying 1:1 binding model to fit the data from multiple-cycle injection experiments using Biacore Insight Evaluation software.

[1] = target: T1, human mutCALR on BaF3 cells stably …; experiment: flow cytometry, BaF3 MPL-mutCALR cells
Method: On the day of the assay, cells were washed and resuspended in assay buffer. Approximately 200,000 cells/well were added to 96-well plates and stained with the indicated concentration of antibodies for 30 minutes on ice. Cells were then washed and stained with goat anti-human secondary conjugated to R-phycoerythrin (R-PE) (Jackson Immuno Research Laboratories) for 30 minutes on ice. The cells were then washed and analyzed by flow cytometry.

[2] = target: T2, human Type 1 mutCALR on Ba/F3 cells …; experiment: cell-based or functional assay

Binder | binding result (MBP protein) | EC50 [1] [µg/mL] | MPL-mutCALR AUC [1] | IC50, inhibition of pSTAT5 [2] [µg/mL]
anti-mutCALR antibody clone 4 (antibody, human IgG1, lambda, V domains shown) VH: EVQLVQSGAEVKKPGASVKVSCKVSGYTLTELSMQWVRQAPGKGLEWMGGFDPDDGETMYAEKFQGRLTVTEDTSTDTVYMELRSLTSEDTALYFCATSPGYDFFDYWGQGTLVTVSS VL: SYVLTQPPSVSVAPGQTARITCGGNNIGSKSVHWYQQKPGQAPVLVVYDDSDRPSGIPERFSGSNSGNTATLTINRVEAGDEADYYCQVWDSSNDLLIFGGGTKLTVLG | no binding (tested: 250 nM) |  |  | 
anti-mutCALR antibody clone 3 (antibody, human IgG1, lambda, V domains shown, human IgG1; group 1) VH: EVQLVQSGAEVKKPGASVKVSCKVSGYTLTELSMQWVRQAPGKGLEWMGGFDPDDGETMYAERFQGRLTVTEDTSTDTVYMELRSLTSEDTALYFCATSPGYDFFDYWGQGTLVTVSS VL: SYVLTQPPSVSVAPGQTARITCGGNNIGSKSVHWYQQKPGQAPVLVVYDDSDRPSGIPERFSGSNSGNTATLTINRVEAGDEADYYCQVWDSSNDLLIFGGGTKLTVLG | no binding (tested: 250 nM) |  |  | 
anti-mutCALR antibody clone 2 (antibody, human IgG1, lambda, V domains shown, human IgG1; group 1) VH: EVQLVQSGAEVKKPGASVKVSCKVSGYTLTELSMQWVRQAPGKGLEWMGGFDPDDGETMYAEKFQGRLTVTEDTSTDTVYMELRSLTSEDTALYFCATSPGYDFFDYWGQGTLVTVSS VL: SYELTQPPSVSVAPGKTARITCGGDNIGSKSVHWYQQKPGQAPVLVVYDDSDRPSGIPERFSGSNSGNTATLTISRVEAGDEADYYCQVWDSSIDHLIFGGGTKVTVLG | no binding (tested: 250 nM) |  |  | 
anti-mutCALR antibody clone 1 (antibody, human IgG1, lambda, V domains shown, human IgG1; group 1) VH: EVQLVQSGAEVKKPGASVKVSCKVSGYTLTELSMQWVRQAPGKGLEWMGGFDPDDGETMYAEKFQGRLTVTEDTSTDTVYMELRSLTSEDTALYFCATSPGYDFFDYWGQGTLVTVSS VL: SYVLTQPPSVSVAPGKTARITCGGNYIGSKSVHWYQQKPGQAPVLVVYDDGDRPSGIPARFSGSNSGNTATLTISRVEAGDEADYYCQVWDSISDHVVFGGGTKLTVLG | no binding (tested: 250 nM) |  |  | 
anti-mutCALR antibody clone 7 (antibody, human IgG1, lambda, V domains shown, human IgG1; group 1) VH: EVQLVQSGAEVKKPGASVKVSCKVSGYTLTELSMQWVRQAPGKGLEWMGGFDPDDGETMYAEKFQGRLTVTEDTSTDTVYMELRSLTSEDTALYFCATSPGYDFFDYWGQGTLVTVSS VL: SYVLTQPPSVSVAPGQTASITCVGTNFGSKNVHWYQQRPGQAPVLVVYDDSDRPSGIPERFSGSNSGNTATLTINRVEAGDEADYYCQVWDSSNDLLIFGGGTKLTVLG | no binding (tested: 250 nM) |  |  | 
anti-mutCALR antibody clone 5 (antibody, human IgG1, lambda, V domains shown, human IgG1; group 1) VH: EVQLVQSGAEVKKPGASVKVSCKVSGYTLTELSMQWVRQAPGKGLEWMGGFDPDDGETMYAEKFQGRLTVTEDTSTDTVYMELRSLTSEDTALYFCATSPGYDFFDYWGQGTLVTVSS VL: SYVLTQPPSVSVAPGQTASITCVGTNFGSKNVHWYQQRPGQAPVLVVYDDSDRPSGIPERFSGSNSGNTATLTISRVEAGDEADYYCQVWDSSSDHLIFGGGTKLTVLG | no binding (tested: 250 nM) |  |  | 
anti-mutCALR antibody clone 34 (antibody, human IgG1, lambda, V domains shown, human IgG1) VH: QVQLVQSGAEVKKPGATVKISCKVSGYSFTDYFIHWVQQAPGKGLAWVGLVDPEDGETIYAEKFQGRVTITADTSTDTAYMELSSLRSEDTAVYYCATPGGILTDPDAFDIWGQGTMVTVSS VL: QSALTQPASVSGSPGQSITISCTGTSSDVGGYNYVSWYQQHPGKAPKLMIYEVSNRPSGVSNRFSGSKSGNTASLTISGLQAEDEADYYCSSYTSSSTYVFGTGTKVTVLG |  | 0.02 | 71900 | 0.072
anti-mutCALR antibody clone 37 (antibody, human IgG1, lambda, V domains shown, human IgG1; group 2) VH: QVQLVQSGAEVKKPGATVKISCKVSGYSFTDYFIHWVQQAPGKGLAWVGLVDPEDGETIYAEKFQGRVTITADTSTDTAYMELSSLRSEDTAVYYCATPGGILTDPDAFDIWGQGTMVTVSS VL: QSALTQPASVSGSPGQSITISCTGTSSDVGGYNYVSWYQQHPGKAPKLMIYDVSNRPSGVSNRFSGSKSGNTASLTISGLQAEDEADYYCSSYTSSSTFYVFGTGTKVTVLG | no binding (tested: 250 nM) |  |  | 
anti-mutCALR antibody clone 36 (antibody, human IgG1, lambda, V domains shown, human IgG1; group 2) VH: QVQLVQSGAEVKKPGATVKISCKVSGYSFTDYFIHWVQQAPGKGLAWVGLVDPEDGETIYAEKFQGRVTITADTSTDTAYMELSSLRSEDTAVYYCATPGGILTDPDAFDIWGQGTMVTVSS VL: QSALTQPRSVSGSPGQSVTISCAGTGSDVGGYNYVSWYQHHPGKAPKLMIYDVNKRPSGVPDRFSGSKSGNTASLTISGLQAEDEADYYCSSYTSSSTFYVFGTGTKVTVLG | no binding (tested: 250 nM) |  |  | 
anti-mutCALR antibody clone 35 (antibody, human IgG1, lambda, V domains shown, human IgG1; group 2) VH: QVQLVQSGAEVKKPGATVKISCKVSGYSFTDYFIHWVQQAPGKGLAWVGLVDPEDGETIYAERFQGRVTITADTSTDTAYMELSSLRSEDTAVYYCATPGGILTDPDAFDIWGQGTMVTVSS VL: QSALTQPASVSGSPGQSITISCTGTSSDVGGYNYVSWYQQHPGKAPKLMIYEVSNRPSGVSNRFSGSKSGNTASLTISGLQAEDEADYYCSSYTSSSTPYVFGTGTKVTVLG | no binding (tested: 250 nM) |  |  | 
anti-mutCALR antibody clone 48 (antibody, human IgG1, lambda, V domains shown, human IgG1) VH: EVQLVQSGAEVKKPGSSVKVSCKASGGTFSSYAISWVRQAPGQGLEWMGGIIPIFGTANYAQKFQGRVTITADESTSTAYMELSSLRSEDTAVYYCASSPLRGSGWYWHYYYGMDVWGQGTTVTVSS VL: SYVLTQPPSVSVAPGKTARITCGGNNIGSKSVHWYQQKPGQAPVLVIYQDRKRPSGIPERFSGSNSGNTATLTISGTQAMDEADYYCQAWDSSTAVFGGGTKLTVLG |  |  | 30300 | 2.6
anti-mutCALR antibody clone 49 (antibody, human IgG1, lambda, V domains shown, human IgG1) VH: EVQLVQSGAEVKKPGSSVKVSCKASGGTFSSYAISWVRQAPGQGLEWMGGIIPIFGTANYAQKFQGRVTITADESTSTAYMELSSLRSEDTAVYYCASSPLRGSGWYWHYYYGMDVWGQGTTVTVSS VL: SYELTQPPSVSVAPGKTARITCGGNNIRAKHVHWYQQKPGQSPVLVIYQDSKRPSGIPERFSGSNSGSTATLTISRVEAGDEADYYCQVWDSSTVVFGGGTKLTVLG |  | 0.89 | 36400 | 9.3
anti-mutCALR antibody clone 43 (antibody, human IgG1, lambda, V domains shown, human IgG1) VH: EVQLVQSGAEVKKPGASVKVSCKASGGTFSSYAISWVRQAPGQGLEWMGGIIPIFGTANYAQKFQGRVTITADESTSTAYMELSSLRSEDTAVYYCASSPLRGSGWYWHYYYGMDVWGQGTTVTVSS VL: not shown |  |  | 27900 | 6.9
anti-mutCALR antibody clone 51 (antibody, human IgG1, lambda, V domains shown, human IgG1) VH: EVQLVQSGAEVKKPGSSVKVSCKASGGTFSSYAISWVRQAPGQGLEWMGGIIPIFGTANYAQKFQGRVTITADESTSTAYMELSSLRSEDTAVYYCASSPLRGSGWYWHYYYGMDVWGQGTTVTVSS VL: SYELTQPPSVSVAPGKTARITCGGNKIGTKSVHWYQQKPGQAPVLVIYQDSKRPSGIPERFSGSNSGNTATLTISGTQAMDEADYYCQAWGSSTVVFGGGTKLTVLG |  | 1.15 | 37300 | 14
anti-mutCALR antibody clone 45 (antibody, human IgG1, lambda, V domains shown, human IgG1) VH: EVQLVQSGAEVKKPGSSVKVSCKASGGTFSSYAISWVRQAPGQGLEWMGGIIPIFGTANYAQKFQGRVTITADESTSTAYMELSSLRSEDTAVYYCASSPLRGSGWYWHYYYGMDVWGQGTTVTVSS VL: SYVLTQPLSVSVAPGQTARITCGGNNIGRKSVHWYQQKPGQAPVLVIYRDSNRPSGIPERFSGSNSGNTATLTISRAQAGDEADYYCQVWDSSTVVFGGGTKLTVLG |  |  | 29800 | 13
anti-mutCALR antibody clone 50 (antibody, human IgG1, lambda, V domains shown, human IgG1) VH: QMQLVQSGAEVKKPGSSVKVSCKASGGTFSSYAISWVRQAPGQGLEWMGGIIPIFGTANYAQKFQGRVTITADESTSTAYMELSSLRSEDTAVYYCASSPLRGSGWYWHYYYGMDVWGQGTTVTVSS VL: SYVLTQPPSVSVAPGKTARITCGGNNIGTKSVHWYQQKPGQSPVLVIYQDRKRPSGIPERFSGSNSGNTATLTISGTQAMDEADYYCQVWDSSTEVFGGGTKLTVLG |  | 0.8 | 36700 | 28
